Experimental data: article PMC4791394

The substances below were run against taxol-stabilized microtubules (assay: co-sedimentation; normalized COS7 lysates in PEM buffer incubated with taxol-stabilized microtubules with 2.5 mM AMP-PNP, RT 30 min; 100,000 x g 40 min through a taxol-supplemented cushion; supernatant and pellet blotted for KIF5 and tubulin).

percent co-purified with microtubules	Substance
100%	KIF5C(1-560)^S176A-3xmCit (from UniProt P28738 1-560) (domain or fragment)
60%	KIF5C(1-560)^S176D-3xmCit (from UniProt P28738 1-560) (domain or fragment)
100%	KIF5C(1-560)^WT-3xmCit (from UniProt P28738 1-560) (domain or fragment)
